In experiment [1] the target is T1, mouse Fc tagged human CD137 protein (AcroBiosystems, Cat #41B-H5256) (human, UniProt Q07011 24-186).
T1 construct: extracellular domain; Bought protein; also called CD137 extracellular domain fused with mouse Fc tag recombinant protein; human CD137 antigen
The experiment can be described thus: BLI (Octet), biotinylated p95 peptide on SA sensor, antibody 100 nM, then CD137-mFc 100 nM. The procedure:
The binding activities of anti-p95HER2-CD137 bispecific antibody was determined by ForteBIO® (Menlo Park, Calif.) biosensor analysis. In this method, the custom synthesis biotinylated Her2 p95 peptide (GenScript) was loaded onto SA (Streptavidin, ForteBIO, Cat #18-5019) biosensor at 50 μg/mL for 5 minutes. Sensors then were exposed to antibody samples at 100 nM for 5 minutes follow by associating with the mouse Fc tagged human CD137 protein (AcroBiosystems, Cat #41B-H5256) at 100 nM for 5 minutes. The binding chart were produced by Octet Data Acquisition and Analysis Software.
A general note: Biolayer interferometry detects binding as a change in optical thickness at a sensor tip.

In experiment [2] the target is T2, CD73, cell membrane-bound (expressed by MDA-MB-231 cells) (human, UniProt P21589 27-549).
T2 construct: whole, on cells; also called CD73-expressing MDA-MB-231 breast cancer cells
T2 sequence (looked up): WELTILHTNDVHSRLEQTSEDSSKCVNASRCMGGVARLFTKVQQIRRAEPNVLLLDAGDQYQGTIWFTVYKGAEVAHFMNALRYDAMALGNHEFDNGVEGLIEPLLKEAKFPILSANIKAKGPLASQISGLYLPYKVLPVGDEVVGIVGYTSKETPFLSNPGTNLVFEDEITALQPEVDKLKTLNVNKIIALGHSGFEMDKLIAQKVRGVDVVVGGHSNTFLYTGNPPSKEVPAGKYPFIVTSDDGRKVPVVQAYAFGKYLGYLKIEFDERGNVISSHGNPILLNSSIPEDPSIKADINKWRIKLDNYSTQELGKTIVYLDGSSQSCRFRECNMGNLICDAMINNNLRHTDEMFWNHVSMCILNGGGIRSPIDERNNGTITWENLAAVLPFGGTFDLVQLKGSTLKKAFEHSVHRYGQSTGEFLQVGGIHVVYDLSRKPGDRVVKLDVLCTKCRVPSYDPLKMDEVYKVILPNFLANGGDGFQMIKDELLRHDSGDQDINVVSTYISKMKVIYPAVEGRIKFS
Put plainly: flow cytometry, antibody 4 µg/ml on MDA-MB-231 cells, A488 anti-human IgG. The procedure: As illustrated in FIG. 15 the binding activity of anti-CD73 antibody leads was assessed by flow cytometer. MDA-MB-231 cells (1×10^5 cells) were surface stained with anti-CD73 antibody (4 μg/ml) for 30 minutes, then incubated with A488-conjugated anti-human IgG secondary antibody for 15 minutes on ice. Cells were analyzed by flow cytometer, and A488 fluorescence intensity was shown by histograms (left) and number (right table). As illustrated in FIG. 16 the blockade of CD73 enzymatic activity by anti-CD73 antibody leads was assessed. The enzymatic activity of CD73 expressed by MDA-MB-231 on the cell surface was blocked by anti-CD73 antibody leads.
For orientation: Flow cytometry measures light scatter and fluorescence of single cells or particles in a stream.

The target of experiment [3] is T3, CD73 (antigen of the CD73 ELISA) (UniProt P21589 27-547, limits assumed).
T3 construct: the ELISA antigen is not described
T3 sequence (looked up): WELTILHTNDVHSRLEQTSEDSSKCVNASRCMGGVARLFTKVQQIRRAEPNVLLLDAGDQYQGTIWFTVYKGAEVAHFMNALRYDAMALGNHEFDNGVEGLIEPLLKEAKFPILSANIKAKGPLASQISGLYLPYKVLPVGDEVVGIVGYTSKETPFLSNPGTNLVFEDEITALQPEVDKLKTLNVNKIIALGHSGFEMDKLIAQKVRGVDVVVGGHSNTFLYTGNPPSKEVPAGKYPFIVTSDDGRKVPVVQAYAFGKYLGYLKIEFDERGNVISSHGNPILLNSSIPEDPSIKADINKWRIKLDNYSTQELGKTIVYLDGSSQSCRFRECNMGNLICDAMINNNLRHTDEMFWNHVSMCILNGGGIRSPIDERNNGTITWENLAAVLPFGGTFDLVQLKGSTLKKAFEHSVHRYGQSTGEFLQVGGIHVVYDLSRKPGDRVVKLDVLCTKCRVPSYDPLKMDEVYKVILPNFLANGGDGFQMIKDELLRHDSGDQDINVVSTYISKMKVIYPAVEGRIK
Put plainly: phage ELISA on coated CD73-flag-HIS; X-flag-HIS control bars not seen above the axis. A general note: ELISA stands for enzyme-linked immunosorbent assay.

Experiment [4] concerns the target T3, CD73 (antigen of the CD73 ELISA). Described as above. This is another data set of the same source.
Experiment [5] deals with T2, CD73, cell membrane-bound (expressed by …). The experiment can be described thus: cell-based or functional assay.
The target of experiment [6] is T4, soluble CD73 secreted by MDA-MB-231 cells (human, UniProt P21589 27-549, limits assumed).
T4 sequence (looked up): T2 sequence (looked up)
Put plainly: cell-based or functional assay.

In experiment [7] the target is T5, his-tagged human CD73 (AcroBiosystems, Cat. No. CD3-H52H7) (human, UniProt P21589 27-547).
T5 construct: Bought protein; also called hCD73-His; human CD73 antigen; not shown: His tag
T5 sequence (looked up): T3 sequence (looked up)
The experiment can be described thus: BLI (Octet), antibody on AHC sensor, hCD73-His 2-fold from 30 nM, 7 points. The procedure: (§1) The affinity of anti-CD73 mAbs and bsAbs were determined by biolayer interferometry analysis (ForteBIO, USA). In this method, anti-CD73 antibodies were loaded at 5 μg/mL on AHC (Anti-Human IgG Fc Capture, ForteBIO, Cat. No. 18-5060) for signal reach to approximate 0.5 nm. Sensors then were exposed to his-tagged human CD73 (AcroBiosystems, Cat. No. CD3-H52H7)-containing solutions that 2-fold serial diluted from the top concentration 30 nM for total 7 points. Measurements were performed as follows: 1 minute baseline in kinetic buffer, 5 minutes association in hCD73-His-containing solutions, and 5 minutes dissociation into kinetic buffer. The kinetic parameters were calculated and produced by Octet Data Acquisition and Analysis Software.

Experiment [8] addresses T1, mouse Fc tagged human CD137 protein …. Put plainly: BLI (Octet), hCD73-His on HIS1K sensor, antibody 100 nM, then CD137-mFc 100 nM. The procedure:
The binding activities of the AP601 was determined by ForteBIO® (Menlo Park, Calif.) biosensor analysis. In this method, the His tagged human CD73 protein (AcroBiosystems, Cat. No. CD3-H52H7) were loaded onto HIS1K (Anti-Penta-HIS) biosensor (Cat. No. 18-5120) at 5 μg/mL for 5 minutes. Sensors then were exposed to antibody samples at 100 nM for 5 minutes follow by associating with the mouse Fc tagged human CD137 protein (AcroBiosystems, Cat. No. 41B-H5256) at 100 nM for 5 minutes. The binding chart were produced by Octet Data Acquisition and Analysis Software.

In experiment [9] the target is T5, his-tagged human CD73 (AcroBiosystems, …). The experiment can be described thus: biolayer interferometry; antibody captured on AHC sensor, hCD73-His as analyte. The procedure: as §1

Numbering of substitutions follows the chain as printed. Names may count otherwise. Where two headings read alike, the source gives them in different places.

What is called Kd is the concentration at which binding is half-saturated. A higher Kd goes with a looser complex.

B1: anti-p95HER2 antibody clone R4-11 (antibody, human IgG1, kappa, V domains shown)
VH: QITLKESGPTLVKPTQTLTLTCTFSGFSLSTSGVGVGWIRQPPGKALEWLALIYWDDDKRYSPSLKSRLTITKDTSKNQVVLTMTNMDPVDTATYYCAHAHPFSGSYNFWGQGTLVTVSS
VL: DIVMTQSPDSLAVSLGERATINCKSSQSVLFSSNNKDYLAWYQQRPGQPPKLLIHWASTREPGVPDRFSGSGSGTDFTLTISSLQAEDVAVYYCLQSYSNPPTFGQGTKVEIKR
notes: also called p95HER2 #R4-11; #R4-11 mAb
For the molecule B1, in experiment [1], the binding result is reported as “no binding (tested: 100 nM)”.

B2: CR3-16 (antibody, IgG1, V domains shown)
VH: QVQLVQSGAEVKKPGASVKVSCKASGYTFTDFYIHWVRQAPGQGLEWMGWINPYSGSTNYPQKFQGRVTMTRDTSISTAYMDLSSLTSDDTAVYLCVRGRWFDFDYWGQGTTVTVSS
VL: QSALTQPPSVSGSPGQSITISCTGTSSDVGTYNFVSWYQQHPGKVPKLIIYDVSNRPSGVSIRFSGSKSGNTASLTISGLQAEDEADYYCSSFRSGSTYVFGTGTRVTVLG
notes: also called anti-CD73 antibody clone 3-16
B2: the binding result in [2] and in [3] was “binds” each time.

B3: anti-CD73 antibody clone 3-4 (antibody, V domains shown)
VH: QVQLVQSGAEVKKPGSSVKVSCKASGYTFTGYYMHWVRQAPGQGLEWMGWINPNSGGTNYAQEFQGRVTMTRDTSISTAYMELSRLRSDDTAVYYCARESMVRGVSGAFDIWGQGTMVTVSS
VL: QSALTQPASVSGSPGQSITISCTGTSSDVGSYNLVSWYQQHPGKAPKLMIYEGSKRPSGVSNRFSGSKSGNTASLTISGLQAEDEADYYCCSYAGSSGWDIGTGTKVTVLG
notes: also called CD73 #3-4; CR3-4
In the case of B3, the binding result in [2] and in experiment [3] was “binds” each time.

B4: CR3-1-37 (antibody, IgG1, V domains shown)
VH: QVQLVQSGAEVKRPGSSVKVSCKASGGTFSSYAISWVRQAPGQGLEWMGGIIPIFGTANYAQKFQGRVTITADESTSTAYMELSSLRSEDTAVYYCARGVSYYYGMHVWGQGTTVTVSS
VL: SYVLTQPPSVSVTPGKTARIACGGNNLESKIVSWYQQKPGQAPVLVIFYDTDRPSGISERFSGSNSGNTATLTISRVEAGDEADYYCQVWDSNSDHVIFGGGTKLTVLG
notes: also called anti-CD73 antibody clone 3-1-37
In the case of B4, the binding result in experiment [2] and in experiment [4] was “binds” throughout.

B5: anti-CD73 antibody clone 3-1-28 (antibody, human IgG1, lambda, N297A, V domains shown)
VH: QVQLVQSGAEVKKPGSSVKVSCKASGGTFSSYAISWVRQAPGQGLEWMGRIIPILGIANYAQKFQGRVTITADKSTSTAYMELSSLRSEDTAVYYCARDSPVHYYGSGSYYRDAFDIWGQGTMVTVSS
VL: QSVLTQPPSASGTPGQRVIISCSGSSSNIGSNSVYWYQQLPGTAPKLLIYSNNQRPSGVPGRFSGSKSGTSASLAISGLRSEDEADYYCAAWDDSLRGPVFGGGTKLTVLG
notes: also called CD73 #3-1-28; parental #3-1-28
As to B5, the “IC50, inhibition of cell membrane-bound CD73 enzyme (AMP-Glo, MDA-MB-231 cells)” value in experiment [5] amounted to 0.49 nM. Also, in experiment [6], the “IC50, inhibition of soluble CD73 enzyme (AMP-Glo, MDA-MB-231 cultured medium)” value (shortened to “IC50, inhibition of soluble CD73 enzyme”) was determined as 1.48 nM. Further, the Kd in experiment [7] was found to be 1.04 nM. In experiment [8], the binding result was “no binding (tested: 100 nM)”.

B6: anti-CD73 #3-1-28-v1 (antibody, human IgG1, lambda, N297A, V domains shown)
VH: B5 VH
VL: QSVLTQPPSASGTPGQRVIISCSGSSSNIGSNSVYWYQQLPGTAPKLLIYANNERPSGVPGRFSGSKSGTSASLAISGLRSEDEADYYCAAWDDSLRGPVFGGGTKLTVLG
notes: engineered IgG1 constant region; also called #1919-003; anti-CD73 #3-1-28 (S51A Q54E)
For B6, the “IC50, inhibition of cell membrane-bound CD73 enzyme (AMP-Glo, MDA-MB-231 cells)” value in experiment [5] came out at 0.213 nM. Also, the “IC50, inhibition of soluble CD73 enzyme” value in [6] is 0.187 nM. For the same molecule, the “fold improvement of binding affinity against parental #3-1-28” value (from here on “fold improvement of binding affinity”) in experiment [9] was around 2 fold. In addition, in experiment [7], the affinity, expressed as Kd, was 0.344 nM.

B7: anti-CD73 #3-1-28-v3 (antibody, human IgG1, lambda, N297A, V domains shown)
VH: B5 VH with S107D, S109T, A114S
VL: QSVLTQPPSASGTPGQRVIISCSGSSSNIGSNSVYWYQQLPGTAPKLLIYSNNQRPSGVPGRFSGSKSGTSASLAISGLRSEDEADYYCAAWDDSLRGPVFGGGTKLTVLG
notes: also called #1911-030; anti-CD73 #3-1-28 (S107D S109T A114S)
On to B7, for which the “IC50, inhibition of soluble CD73 enzyme” value in experiment [6] worked out at 0.241 nM. Also, in experiment [9], the “fold improvement of binding affinity” value is around 2 fold. The molecule also returned a Kd in [7] of 0.553 nM.

B8: anti-CD73 #3-1-28-v2 (antibody, human IgG1, lambda, N297A, V domains shown)
VH: B5 VH with S107D, S109H
VL: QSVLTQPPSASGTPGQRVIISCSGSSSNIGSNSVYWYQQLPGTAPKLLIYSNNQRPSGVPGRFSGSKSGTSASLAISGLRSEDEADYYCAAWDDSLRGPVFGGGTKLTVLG
notes: also called #1911-022; anti-CD73 #3-1-28 (S107D S109H)
For B8, the “IC50, inhibition of cell membrane-bound CD73 enzyme (AMP-Glo, MDA-MB-231 cells)” value in experiment [5] worked out at 0.245 nM. Further, in experiment [6], the “IC50, inhibition of soluble CD73 enzyme” value came out at 0.273 nM. Further, the “fold improvement of binding affinity” value in [9] was around 2 fold. In experiment [7], this molecule had a Kd of 0.523 nM.
